The target in assay [1] is T1, EGFR (UniProt P00533 25-645, limits assumed, biotinylated).
T1 construct: ELISA antigen; construct not described
Nature of the assay: direct bind ELISA, C-term VD.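 Note: ELISA with antibody or DVD-Ig preparations applied to target antigen-coated plates for 1 h at room temperature, TMB colour development, absorbance read at 450 nm.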

Assay [2] deals with T2, PLGF (UniProt P49763-2 21-149, limits assumed, biotinylated).
T2 construct: ELISA antigen; also called P1GF
T2 sequence (looked up): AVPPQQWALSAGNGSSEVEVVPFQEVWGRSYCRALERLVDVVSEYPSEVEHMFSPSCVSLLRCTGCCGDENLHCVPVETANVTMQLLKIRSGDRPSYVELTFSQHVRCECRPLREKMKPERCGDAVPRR
Nature of the assay: direct bind ELISA, N-term VD.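 Note: antibody or DVD-Ig preparations bound to immobilized target antigen on ELISA plates, 1 h at room temperature, TMB detection read as absorbance at 450 nm.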

In assay [3] the target is T2, PLGF. Briefly: direct bind ELISA, C-term VD.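 Note: ELISA with antibody or DVD-Ig preparations applied to target antigen-coated plates for 1 h at room temperature, TMB colour development, absorbance read at 450 nm.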
The target in assay [4] is T1, EGFR. Nature of the assay: direct bind ELISA, N-term VD.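 Note: antibody or DVD-Ig preparations bound to immobilized target antigen on ELISA plates, 1 h at room temperature, TMB detection read as absorbance at 450 nm.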
For assay [5], the target named is T2, PLGF. Briefly: direct bind ELISA, ref Ab.
A further assay deals with T3, ErbB3 (UniProt P21860 20-643, limits assumed, biotinylated).
T3 construct: ELISA antigen
Briefly: direct bind ELISA, ref Ab.

The target of the next assay is RON (UniProt Q04912 25-571, biotinylated). Briefly: direct bind ELISA, ref Ab.
The target in a further assay is T4, HGF (UniProt P14210 32-728, limits assumed, biotinylated).
T4 construct: ELISA antigen
Nature of the assay: direct bind ELISA, ref Ab.

Another assay has as its target T5, IGF1R (UniProt P08069 31-932, limits assumed, biotinylated).
T5 construct: ELISA antigen
Briefly: direct bind ELISA, ref Ab.

The target in a further assay is T6, DLL-4 (UniProt Q9NR61 27-524, limits assumed, biotinylated).
T6 construct: ELISA antigen
Nature of the assay: direct bind ELISA, ref Ab.

Results on 15 molecules are retold here after patent US20110263827A1 (AbbVie / Abbott, published 2011).

Where “and” joins values, the source holds several entries; their conditions need not be identical. Equal entries are not always repeated.

B1: DVD784 (bispecific antibody)
VH: QVQLQQSGAELVKPGASVKISCKASGYTFTDYYINWVKLAPGQGLEWIGWIYPGSGNTKYNEKFKGKATLTIDTSSSTAYMQLSSLTSEDTAVYFCVRDSPFFDYWGQGTLLTVSSASTKGPSVFPLAPQVQLQESGPGLVKPSQTLSLTCTVSGYSISSDFAWNWIRQPPGKGLEWMGYISYSGNTRYQPSLKSRITISRDTSKNQFFLKLNSVTAADTATYYCVTAGRGFPYWGQGTLVTVSS
VL: DIVLTQSPDSLAVSLGERVTMNCKSSQSLLNSGMRKSFLAWYQQKPGQSPKLLIYWASTRESGVPDRFTGSGSGTDFTLTISSVQAEDVAVYYCKQSYHLFTFGSGTKLEIKRTVAAPSVFIFPPDIQMTQSPSSMSVSVGDRVTITCHSSQDINSNIGWLQQKPGKSFKGLIYHGTNLDDGVPSRFSGSGSGTDYTLTISSLQPEDFATYYCVQYAQFPWTFGGGTKLEIKR
notes: DVD-Ig; HC L, LC L; variable parts only
With B1, the EC50 with EGFR [1] was found to be 41.4 nM; in the assay with PLGF [2] it was 0.26 nM.

B2: DVD844 (bispecific antibody)
VH: QVQLQQSGAELVKPGASVKISCKASGYTFTDYYINWVKLAPGQGLEWIGWIYPGSGNTKYNEKFKGKATLTIDTSSSTAYMQLSSLTSEDTAVYFCVRDSPFFDYWGQGTLLTVSSASTKGPQVQLQESGPGLVKPSQTLSLTCTVSGYSISSDFAWNWIRQPPGKGLEWMGYISYSGNTRYQPSLKSRITISRDTSKNQFFLKLNSVTAADTATYYCVTAGRGFPYWGQGTLVTVSS
VL: B1 VL
notes: DVD-Ig; HC S, LC L; variable parts only
With B2, the EC50 was determined as 45.5 nM with EGFR [1] and 0.23 nM with PLGF [2].

B3: DVD814 (bispecific antibody)
VH: B1 VH
VL: DIVLTQSPDSLAVSLGERVTMNCKSSQSLLNSGMRKSFLAWYQQKPGQSPKLLIYWASTRESGVPDRFTGSGSGTDFTLTISSVQAEDVAVYYCKQSYHLFTFGSGTKLEIKRTVAAPDIQMTQSPSSMSVSVGDRVTITCHSSQDINSNIGWLQQKPGKSFKGLIYHGTNLDDGVPSRFSGSGSGTDYTLTISSLQPEDFATYYCVQYAQFPWTFGGGTKLEIKR
notes: DVD-Ig; HC L, LC S; variable parts only
Turning to B3, the EC50 in the assay with EGFR [1] turned out to be 50.4 nM; in the assay with PLGF [2], 0.23 nM.

B4: DVD813 (bispecific antibody)
VH: QVQLQESGPGLVKPSQTLSLTCTVSGYSISSDFAWNWIRQPPGKGLEWMGYISYSGNTRYQPSLKSRITISRDTSKNQFFLKLNSVTAADTATYYCVTAGRGFPYWGQGTLVTVSSASTKGPSVFPLAPQVQLQQSGAELVKPGASVKISCKASGYTFTDYYINWVKLAPGQGLEWIGWIYPGSGNTKYNEKFKGKATLTIDTSSSTAYMQLSSLTSEDTAVYFCVRDSPFFDYWGQGTLLTVSS
VL: DIQMTQSPSSMSVSVGDRVTITCHSSQDINSNIGWLQQKPGKSFKGLIYHGTNLDDGVPSRFSGSGSGTDYTLTISSLQPEDFATYYCVQYAQFPWTFGGGTKLEIKRTVAAPDIVLTQSPDSLAVSLGERVTMNCKSSQSLLNSGMRKSFLAWYQQKPGQSPKLLIYWASTRESGVPDRFTGSGSGTDFTLTISSVQAEDVAVYYCKQSYHLFTFGSGTKLEIKR
notes: as for B3
On to B4, for which the EC50 was 0.44 nM with PLGF [3] and 3.41 nM in the assay with EGFR [4].

B5: DVD341 (bispecific antibody)
VH: QVQLQESGPGLVKPSQTLSLTCTVSGYSISSDFAWNWIRQPPGKGLEWMGYISYSGNTRYQPSLKSRITISRDTSKNQFFLKLNSVTAADTATYYCVTAGRGFPYWGQGTLVTVSSASTKGPQVQLQQSGAELVKPGASVKISCKASGYTFTDYYINWVKLAPGQGLEWIGWIYPGSGNTKYNEKFKGKATLTIDTSSSTAYMQLSSLTSEDTAVYFCVRDSPFFDYWGQGTLLTVSS
VL: B4 VL
notes: DVD-Ig; HC S, LC S; variable parts only
For the molecule B5, the figures for the EC50 with PLGF [3] and with EGFR [4] were 0.74 nM and 3.41 nM, respectively.

B6: AB047 (antibody, V domains shown)
VH: QVQLQQSGAELVKPGASVKISCKASGYTFTDYYINWVKLAPGQGLEWIGWIYPGSGNTKYNEKFKGKATLTIDTSSSTAYMQLSSLTSEDTAVYFCVRDSPFFDYWGQGTLLTVSS
VL: DIVLTQSPDSLAVSLGERVTMNCKSSQSLLNSGMRKSFLAWYQQKPGQSPKLLIYWASTRESGVPDRFTGSGSGTDFTLTISSVQAEDVAVYYCKQSYHLFTFGSGTKLEIKR
notes: parent antibody; also called PLGF; P1GF (ThromboGenix)
For the molecule B6, the EC50 with PLGF [5] is 0.21 nM and 0.25 nM.

B7: AB062 (antibody, V domains shown)
VH: QVQLQQWGAGLLKPSETLSLTCAVYGGSFSGYYWSWIRQPPGKGLEWIGEINHSGSTNYNPSLKSRVTISVETSKNQFSLKLSSVTAADTAVYYCARDKWTWYFDLWGRGTLVTVSS
VL: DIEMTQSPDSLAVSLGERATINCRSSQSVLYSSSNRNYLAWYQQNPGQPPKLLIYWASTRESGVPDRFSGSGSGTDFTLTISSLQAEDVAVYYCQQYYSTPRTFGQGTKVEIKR
notes: parent antibody
In the case of B7, the EC50 with ErbB3 was 1.19 nM and 1.36 nM and 1.34 nM.

B8: AB005 (antibody, V domains shown)
VH: EVQLVQSGGGLVKPGGSLRLSCAASGFTFSSYAMHWVRQAPGKGLEWVAVISYDGSNKYYADSVKGRFTISRDNSKNTLYLQMNSLRAEDTAVYYCARFSGWPNNYYYYGMDVWGQGTTVTVSS
VL: DVVMTQSPLSLPVTPGEPASISCRSSQSLLHSNGFNYVDWYLQKPGQSPHLLIYFGSYRASGVPDRFSGSGSGTDFTLKISRVEAEDVGVYYCMQALQTPPWTFGQGTKVEIRR
notes: parent antibody; also called RON
Turning to B8, the EC50 with RON is 0.19 nM and 0.24 nM.

B9: AB012 (antibody, V domains shown)
VH: QVQLVESGGGLVKPGGSLRLSCAASGFTFSDYYMSWIRQAPGKGLEWVSYISSSGSTIYYADSVKGRFTISRDNAKNSLYLQMNSLRAEDTAVYYCARDEYNSGWYVLFDYWGQGTLVTVSS
VL: DIQMTQSPSSVSASVGDRVTITCRASQGISSWLAWYQQKPGKAPNLLIYEASSLQSGVPSRFGGSGSGTDFTLTISSLQPEDFATYYCQQANGFPWTFGQGTKVEIKR
notes: parent antibody; also called HGF
With B9, in the assay with HGF, the EC50 is 0.15 nM and 0.19 nM.

B10: DVD843 (bispecific antibody)
VH: B5 VH
VL: DIQMTQSPSSMSVSVGDRVTITCHSSQDINSNIGWLQQKPGKSFKGLIYHGTNLDDGVPSRFSGSGSGTDYTLTISSLQPEDFATYYCVQYAQFPWTFGGGTKLEIKRTVAAPSVFIFPPDIVLTQSPDSLAVSLGERVTMNCKSSQSLLNSGMRKSFLAWYQQKPGQSPKLLIYWASTRESGVPDRFTGSGSGTDFTLTISSVQAEDVAVYYCKQSYHLFTFGSGTKLEIKR
notes: as for B2
Consider B10, for which the EC50 in the assay with PLGF [3] worked out at 0.37 nM; with EGFR [4], 3.65 nM.

B11: AB067 (antibody, V domains shown)
VH: EVQLLESGGGLVQPGGSLRLSCAASGFTFSHYVMAWVRQAPGKGLEWVSSISSSGGWTLYADSVKGRFTISRDNSKNTLYLQMNSLRAEDTAVYYCTRGLKMATIFDYWGQGTLVTVSS
VL: QSALTQPASVSGSPGQSITISCTGTSSDVGSYNVVSWYQQHPGKAPKLIIYEVSQRPSGVSNRFSGSKSGNTASLTISGLQTEDEADYYCCSYAGSSIFVIFGGGTKVTVLG
notes: parent antibody
Consider B11, for which the EC50 in the assay with ErbB3 is 1.4 nM and 2.03 nM.

B12: DVD342 (bispecific antibody)
VH: B2 VH
VL: B3 VL
notes: as for B5
Regarding B12, the EC50 with EGFR [1] was determined as 120 nM; with PLGF [2], 0.2 nM.

B13: AB063 (antibody, V domains shown)
VH: EVQLVESGGGLVQPGGSLRLSCAASGFTFSIYSMNWVRQAPGKGLEWVSYISSSSSTIYYADSVKGRFTISRDNAKNSLYLQMNSLRDEDTAVYYCARDRGDFDAFDIWGQGTMVTVSS
VL: DIQMTQSPSSLSASVGDRVTITCQASQDITNYLNWYQQKPGKAPKLLIYDASNLETGVPSRFSGSGSGTDFTFTISSLQPEDIATYNCQQCENFPITFGQGTRLEIKR
notes: parent antibody
On to B13, for which, in the assay with ErbB3, the EC50 is 0.86 nM and 1.11 nM.

B14: AB011 (antibody, V domains shown)
VH: EVQLLESGGGLVQPGGSLRLSCTASGFTFSSYAMNWVRQAPGKGLEWVSAISGSGGTTFYADSVKGRFTISRDNSRTTLYLQMNSLRAEDTAVYYCAKDLGWSDSYYYYYGMDVWGQGTTVTVSS
VL: DIQMTQFPSSLSASVGDRVTITCRASQGIRNDLGWYQQKPGKAPKRLIYAASRLHRGVPSRFSGSGSGTEFTLTISSLQPEDFATYYCLQHNSYPCSFGQGTKLEIKR
notes: parent antibody; also called IGF1R
For the molecule B14, the EC50 with IGF1R is 0.24 nM and 0.26 nM.

B15: AB015 (antibody, V domains shown)
VH: EVQLVESGGGLVQPGGSLRLSCAASGFTFTDNWISWVRQAPGKGLEWVGYISPNSGFTYYADSVKGRFTISADTSKNTAYLQMNSLRAEDTAVYYCARDNFGGYFDYWGQGTLVTVSS
VL: DIQMTQSPSSLSASVGDRVTITCRASQDVSTAVAWYQQKPGKAPKLLIYSASFLYSGVPSRFSGSGSGTDFTLTISSLQPEDFATTYYCQQSYTGTVTFGQGTKVEIKR
notes: parent antibody; also called DLL-4
Consider B15, for which, in the assay with DLL-4, the EC50 is 0.45 nM and 0.4 nM.
